Data taken from the supplement of paper PMC7877785.
± gives the uncertainty stated by the source.

Assay: self-splicing fitness, log relative to wild type (ln ratio); higher = more splicing; Tetrahymena group I intron in knt gene, E. coli kanamycin selection, DiMSum; sequences stand for … in CUCUCU…GGAGGGAAAAGUUAUCAGGCAUGCACCUGGUAGCUAGUCUUUAAACCAAUAGAUUGCAUCGGUUUAAAAGGCAAGACCGUCAAAUUGCGGGAAAGGGGUCAACAGCCGUUCAGUACCAAGUCUCAGGGGAAACUUUGAGAUGGCCUUGCAAAGGGUAUGGUAAUAAGCUGACGGACAUGGUCCUAACCACGCAGCCAAGUCCUAAGUCAACAGAUCUUCUGUUGAUAUGGAUGCAGUUCACAGACUAAAUGUCGGUCGGGGAAGAUGUAUUCUUCUCAUAAGAUAUAGUCGGACCUCUCCUUAAUGGGAGCUAGCGGAUGAAGUGAUGCAACACUGGAGCCGCUGGGAACUAAUUUGUAUGCGAAAGUAUAUUGAUUAGUUUUGGAGUACUCGUGGUCG
In short: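 Colonies from six replicate transformations of E. coli BL21(DE3) were pooled and amplicon-sequenced on an Illumina HiSeq 2500. The library placed an intron with all eight P1ex-region nucleotides randomised inside the knt kanamycin-resistance gene on pET-22b(+), and cells grew overnight at 37°C or 30°C on LB agar with or without 25 μg/mL kanamycin (plus 100 μg/mL carbenicillin, 50 μM IPTG, 0.2% rhamnose). Fitness is the DiMSum error-weighted combination of wild-type-normalised replicate fold changes, kanamycin versus none.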

Row | Sequence | self-splicing fitness (ln) (30 °C) | self-splicing fitness (ln) (37 °C)
1 | AUAGAGCAAUAUUACGGAGU | -0.705 ± 0.093 | -1.03 ± 0.14
2 | AAAAAGCAAUAUUACGAUGC | -1.66 ± 0.091 | -0.868 ± 0.11
3 | ACAGAGCAAUAUUACGCAAC | – | -2.1 ± 0.41
4 | UUCAAGCAAUAUUACGUUGC | – | -3.55 ± 0.46
5 | GCUCAGCAAUAUUACGCGUA | -0.217 ± 0.067 | -0.265 ± 0.079
6 | AUUAAGCAAUAUUACGUGUU | -2.6 ± 0.11 | -0.83 ± 0.098
7 | UCCCAGCAAUAUUACGCCAA | -2.7 ± 0.33 | -1.63 ± 0.3
8 | UGCGAGCAAUAUUACGAACG | -1.07 ± 0.14 | -1.05 ± 0.16
9 | UAAGAGCAAUAUUACGGACA | -1.78 ± 0.25 | -2.31 ± 0.35
10 | UCCAAGCAAUAUUACGCAGG | -3.56 ± 0.43 | -2.05 ± 0.26
11 | CGACAGCAAUAUUACGCCAU | -3.77 ± 0.3 | -1.51 ± 0.32
12 | ACACAGCAAUAUUACGACCG | -0.326 ± 0.077 | 0.342 ± 0.11
13 | CCAGAGCAAUAUUACGGGUC | -3.22 ± 0.43 | -1.53 ± 0.28
14 | GAAGAGCAAUAUUACGUUAC | -2.82 ± 0.17 | -2.7 ± 0.2
15 | CACAAGCAAUAUUACGGUCU | -2.76 ± 0.1 | -1.99 ± 0.12
16 | ACCUAGCAAUAUUACGUAGA | -2.73 ± 0.16 | -2.49 ± 0.21
17 | UGGUAGCAAUAUUACGGGCG | 0.0756 ± 0.11 | 0.475 ± 0.12

Row | Sequence | self-splicing fitness (ln) (30 °C) | self-splicing fitness (ln) (37 °C)
18 | GUUGAGCAAUAUUACGUAGA | – | -0.549 ± 0.24
19 | UACCAGCAAUAUUACGGCAC | -2.09 ± 0.066 | -1.05 ± 0.067
20 | UGAGAGCAAUAUUACGGGUA | -2.66 ± 0.37 | –
21 | GCCCAGCAAUAUUACGGUUU | 0.123 ± 0.05 | 0.185 ± 0.063
22 | AGCGAGCAAUAUUACGUAGA | -3.17 ± 0.24 | -2.85 ± 0.29
23 | AUCAAGCAAUAUUACGUAUG | -4.19 ± 0.24 | -1.56 ± 0.14
24 | GUACAGCAAUAUUACGAAUU | -2.29 ± 0.16 | -1.69 ± 0.15
25 | GCACAGCAAUAUUACGCGUA | -0.987 ± 0.094 | -0.173 ± 0.086
26 | UGUUAGCAAUAUUACGUAGU | -3.48 ± 0.33 | -2.22 ± 0.27
27 | GUCUAGCAAUAUUACGACGU | -0.253 ± 0.15 | 0.696 ± 0.17
28 | CCCAAGCAAUAUUACGUUCA | -3.21 ± 0.23 | -2.39 ± 0.29
29 | GCGAAGCAAUAUUACGGUGA | -2.09 ± 0.11 | -1.07 ± 0.12
30 | GCACAGCAAUAUUACGUGGC | -4.03 ± 0.18 | -2.74 ± 0.15
31 | GACCAGCAAUAUUACGCCGU | -0.962 ± 0.075 | -0.0427 ± 0.08
32 | GCGCAGCAAUAUUACGUCAU | -1.65 ± 0.084 | -0.91 ± 0.086
33 | GAACAGCAAUAUUACGCUCC | -3.43 ± 0.36 | -2.34 ± 0.43
34 | AAUAAGCAAUAUUACGUGAG | -0.815 ± 0.065 | -0.198 ± 0.093
